Results published in patent publication US20110230650A1 (NORTHWESTERN UNIVERSITY, published 2011).

Molecular target: the molecule itself
Experiment: gel filtration (Superdex 200) of His-tagged LP4 purified without detergent; lipid nanodisc
Text: In some embodiments, the presently disclosed compositions comprise a distinct form of polypeptides that are specifically engineered to spontaneously solubilize membrane proteins without a detergent intermediary (i.e., “LP” molecules). […] For example, in some embodiments the polypeptides comprise multiple repeats of an amphipathic helical fragment of ApoA1. […] The eluted protein was run on a gel filtration column (Superdex 200, FIG. 3, middle panel). […] The protein behaved as expected: it self-assembled as a dimer of appropriate size (as in FIG. 2) and solubilized a membrane fragment.

B1: histidine-tagged LP4 (designed binder)
chain: FQKKWQEEMELYRQKVEPLRAELQEGARQKLHELQEKLSPLGEEMRDRARAHVDAFQKKWQEEMELYRQKVEPLRAELQEGARQKLHELQEKLSPLGEEMRDRARAHVDAFQKKWQEEMELYRQKVEPLRAELQEGARQKLHELQEKLSPLGEEMRDRARAHVDAFQKKWQEEMELYRQKVEPLRAELQEGARQKLHELQEKLSPLGEEMRDRARAHVDA
notes: Histidine-tagged LP4 purified without detergent as an empty, lipid-filled nanodisc; not shown: histidine tag
Does B1 bind?
Result: binds
